Results reported in patent EP4674868A1.
Where two headings read alike, the source gives them in different places.

How the values were obtained:
[1] = molecular target: human 4-1BB on the surface of HEK293 cells (HEK293-Hu4-1BB) (human) (UniProt Q07011); assay: FACS, HEK293-Hu4-1BB cells
[2] = molecular target: human CD40 on the surface of HEK293 cells (HEK293-HuCD40) (human) (UniProt P25942); assay: cell-based or functional assay
[3] = molecular target: human CD40 on the surface of HEK293 cells (HEK293-HuCD40) (human) (UniProt P25942); assay: FACS, HEK293-HuCD40 cells
[4] = molecular target: human 4-1BB on the surface of HEK293 cells (HEK293-Hu4-1BB) (human) (UniProt Q07011); assay: FACS, HEK293-Hu4-1BB cells; remark: listed apart in the source
[5] = molecular target: human 4-1BB on the surface of HEK293 cells (HEK293-Hu4-1BB) (human) (UniProt Q07011); assay: FACS, HEK293-Hu4-1BB cells; remark: listed apart in the source
[6] = molecular target: human 4-1BB on the surface of HEK293 cells (HEK293-Hu4-1BB) (human) (UniProt Q07011); assay: cell-based or functional assay
[7] = molecular target: human CD40 on the surface of HEK293 cells (HEK293-HuCD40) (human) (UniProt P25942); assay: cell-based or functional assay; remark: listed apart in the source
[8] = molecular target: human 4-1BB on the surface of HEK293 cells (HEK293-Hu4-1BB) (human) (UniProt Q07011); assay: cell-based or functional assay; remark: listed apart in the source
[9] = molecular target: human CD40 on the surface of HEK293 cells (HEK293-HuCD40) (human) (UniProt P25942); assay: FACS, HEK293-HuCD40 cells; remark: listed apart in the source
[10] = molecular target: human FAP on the surface of CHO-K1 cells (CHO-K1-HuFAP) (human) (UniProt Q12884); assay: FACS, CHO-K1-HuFAP cells
[11] = molecular target: human 4-1BB on the surface of HEK293 cells (HEK293-Hu4-1BB) (human) (UniProt Q07011); assay: FACS, HEK293-Hu4-1BB cells; remark: listed apart in the source
[12] = molecular target: human FAP on the surface of CHO-K1 cells (CHO-K1-HuFAP) (human) (UniProt Q12884); assay: FACS, CHO-K1-HuFAP cells; remark: listed apart in the source
[13] = molecular target: human FAP on the surface of CHO-K1 cells (CHO-K1-HuFAP) (human) (UniProt Q12884); assay: FACS, CHO-K1-HuFAP cells; remark: listed apart in the source

Maximum fluorescence value [1] | CD40/NF-κB reporter (HEK-Blue CD40L), uncrosslinked, Fold change in Emax [2] | Maximum fluorescence value [3] | Maximum fluorescence value [4] | Maximum fluorescence value [5] | 4-1BB/NF-κB luciferase reporter, CD40-crosslinked, Fold change in Emax [6] | 4-1BB/NF-κB luciferase reporter, FAP-crosslinked, Fold change in Emax [6] | 4-1BB/NF-κB luciferase reporter, uncrosslinked, Fold change in Emax [6] | CD40/NF-κB reporter (HEK-Blue CD40L), 4-1BB-crosslinked, Fold change in Emax [7] | CD40/NF-κB reporter (HEK-Blue CD40L), FAP-crosslinked, Fold change in Emax [7] | CD40/NF-κB reporter (HEK-Blue CD40L), uncrosslinked, Fold change in Emax [7] | 4-1BB/NF-κB luciferase reporter, CD40-crosslinked, Fold change in Emax [8] | 4-1BB/NF-κB luciferase reporter, FAP-crosslinked, Fold change in Emax [8] | 4-1BB/NF-κB luciferase reporter, uncrosslinked, Fold change in Emax [8] | Maximum fluorescence value [9] | Maximum fluorescence value [10] | Maximum fluorescence value [11] | Maximum fluorescence value [12] | Maximum fluorescence value [13] | Substance
63 | 0.99 fold | 62 | 69 | 67 | 1.06 fold | 1.04 fold | 1.05 fold | 0.99 fold | 0.99 fold | 1 fold | 1.05 fold | 1.08 fold | 1.1 fold | 61 | 63 | 65 | 62 | 64 | IgG1 isotype control (antibody)
– | – | – | – | – | – | – | – | – | – | – | 1.06 fold | 1.02 fold | 1.01 fold | – | – | 1790 | – | – | RO7300490 (2302(2+1)PG), FAP/CD40 bispecific antibody molecule, control
